In experiment [1] the target is T1, recombinant human interleukin 9 receptor alpha (hIL9R) fused, at the c-terminal, to a human IgG1 Fc (hIL9R-Fc) (human, UniProt Q01113 41-270).
T1 construct: Bought protein; also called Acro Biosystems, Cat. No. ILR-H5251; not shown: human IgG1 Fc fused at the C-terminal
T1 sequence: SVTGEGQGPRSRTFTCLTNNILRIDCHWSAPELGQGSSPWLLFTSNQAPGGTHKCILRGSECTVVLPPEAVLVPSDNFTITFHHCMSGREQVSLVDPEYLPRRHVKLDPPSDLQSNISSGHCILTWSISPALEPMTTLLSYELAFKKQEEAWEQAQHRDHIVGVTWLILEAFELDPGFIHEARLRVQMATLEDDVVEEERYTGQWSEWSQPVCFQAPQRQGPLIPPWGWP
In words: selected from the clones positive in ELISA of periplasmic extracts on coated hIL9R-Fc. The text has this: (§1) The antigen used for panning and ELISA screening was the same as the one used for immunization (Acro Biosystems, Cat. No. ILR-H5251), using uncoated blocked wells as negative control (blank) and hIgG1-Fc (Sino Biological, Cat. No. 10702-HNAH) coated wells as reference for Fc specific clones. Out of these 570 colonies tested by ELISA, 90 colonies scored positive for hIL9R-Fc only. Based on sequence data of the positive colonies, 29 different Nanobodies were distinguished, belonging to 14 different CDR3 groups (B-cell lineages)
(In general: An ELISA detects its analyte on a solid surface through an enzyme-linked reagent.)

Another experiment addresses T2, hIgG1-Fc (human, UniProt P01857-1 99-330 = IgG part, limits assumed).
T2 construct: domain: Fc; also called Sino Biological, Cat. No. 10702-HNAH
In words: ELISA, crude periplasmic extracts on hIgG1-Fc coated wells as reference for Fc specific clones.
Text: as §1

B1: 2SAT363 (VHH)
VHH: QVQLQESGGGLVQAGGSLRLSCTVSGSFFNINAMGWYRQAPGKQRELVATITAGGSTKYEDTVKGRFTISGDSAKNTVSLQMNSLKPEDTAVYYCAAWGTRIRDDYWGQGTQVTVSS
notes: Screened as soluble Nanobody in crude periplasmic extracts, expressed from pMECS-GG; also called T2; VHH anti-IL-9Rα 2SAT363
For the molecule B1, the binding result was “binds” in experiment [1] and “no binding” in the experiment with hIgG1-Fc.

B2: 2SAT57 (VHH)
VHH: QVQLQESGGGLVQAGGSLRLSCAASGSIFSINAMGWFRQAPGKQRELVAVISSGGSTNHADSVKGRFTISRDNAKNTVYLQMNSVKPEDTAVYYCLVATRGGTYEYWGQGTQVTVSS
notes: Screened as soluble Nanobody in crude periplasmic extracts, expressed from pMECS-GG; also called T3; VHH anti-IL-9Rα 2SAT57
In the case of B2, the binding result in experiment [1] is on record as “binds”; in the experiment with hIgG1-Fc it was “no binding”.

The values above are taken from patent US20260216243A1 (TWAIN THERAPEUTICS PTE, published 2026).
